Data on 1 substance can be found in publication PMC8232910.

This test addresses EccD5 (Mycobacterium xenopi ESX-5 type VII secretion system) (Mycobacterium xenopi). In words: cryo-EM structure; purified ESX-5 complex (void peak fraction) in 20 mM tris (pH 8), 150 mM NaCl; C6 global map 3.4 Å and locally refined map of the cytosolic part 3.0 Å; de novo atomic model of the transmembrane and membrane-adjacent cytoplasmic regions.

Usually stoichiometry N stands for the number of molecules, sites or subunits per partner or assembly. For “EccD5 (Mycobacterium xenopi ESX-5 type VII secretion system) (natural protein)”, the stoichiometry N is 2.
